Results from publication PMC9365698, “A physical wiring diagram for the human immune system” (Nature, 2022).

Legend:
Test in all cases: SAVEXIS (scalable arrayed multi-valent extracellular interaction screen); biotinylated bait (100 fmol per well) captured on streptavidin-coated 384-well plates; prey multimerised on streptavidin-HRP (25 fmol protein with 6.25 fmol SAV-HRP); 60 min at 20 °C in 2% BSA in HBS pH 7.4 (1 mM MgCl2, 2 mM CaCl2); desthiobiotin washes; TMB absorbance at 650 nm; both bait-prey orientations; primary and secondary screen
Settings in all cases: both partners purified
[1] = molecular target: T1, Plasmodium falciparum P41 protein (Plasmodium falciparum, UniProt Q8I1Y0 21-378)
T1 construct: P41 protein of Plasmodium falciparum; P41 was the bait in two control wells of every screening plate
T1 sequence: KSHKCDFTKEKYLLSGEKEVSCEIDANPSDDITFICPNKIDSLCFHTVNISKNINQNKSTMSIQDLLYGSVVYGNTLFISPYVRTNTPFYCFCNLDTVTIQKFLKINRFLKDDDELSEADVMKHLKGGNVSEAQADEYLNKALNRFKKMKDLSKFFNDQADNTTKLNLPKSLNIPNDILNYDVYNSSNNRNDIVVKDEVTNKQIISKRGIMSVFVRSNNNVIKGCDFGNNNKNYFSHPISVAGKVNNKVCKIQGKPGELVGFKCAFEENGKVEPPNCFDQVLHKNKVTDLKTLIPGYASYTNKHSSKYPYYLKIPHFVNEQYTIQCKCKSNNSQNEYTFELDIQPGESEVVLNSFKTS

JAG1 = molecular target: T2, JAG1 (human, UniProt P78504 34-1067, biotin on the biotin-acceptor site (enzymatic, co-transfected BirA))
T2 construct: JAG1 (Jagged-1), human, full ectodomain; also called Jagged ligands

PVR = molecular target: T3, PVR (human, UniProt P15151 21-343, biotin on the biotin-acceptor site (enzymatic, co-transfected BirA))
T3 construct: PVR (poliovirus receptor), human, full ectodomain
T3 sequence (looked up): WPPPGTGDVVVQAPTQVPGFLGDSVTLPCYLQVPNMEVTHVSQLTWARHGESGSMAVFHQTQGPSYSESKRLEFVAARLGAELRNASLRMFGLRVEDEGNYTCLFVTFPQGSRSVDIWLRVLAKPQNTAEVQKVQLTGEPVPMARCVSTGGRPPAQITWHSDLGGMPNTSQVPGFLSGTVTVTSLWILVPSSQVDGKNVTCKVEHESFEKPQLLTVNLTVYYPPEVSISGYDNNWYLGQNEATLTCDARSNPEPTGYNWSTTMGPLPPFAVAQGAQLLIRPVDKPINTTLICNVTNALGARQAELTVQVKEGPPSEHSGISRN

B1: Plasmodium falciparum P12 (natural protein)
chain: HKNLTCDFNDVYKLEFHPNQQTSVTKLCNLTPNVLEKVTIKCGSDKLNYNLYPPTCFEEVYASRNMMHLKKIKEFVIGSSMFMRRSLTPNKINEVSFRIPPNMMPEKPIYCFCENKKTITINGSNGNPSSKKDIINRGIVEIIIPSLNEKVKGCDFTTSESTIFSKGYSINEISNKSSNNQQDIVCTVKAHANDLIGFKCPSNYSVEPHDCFVSAFNLSGKNENLENKLKLTNIIMDHYNNTFYSRLPSLISDNWKFFCVCSKDNEKKLVFTVEASISSSNTKLASRDNTYQDYISN
notes: P12 protein of Plasmodium falciparum; P12 was presented as a prey (multimerised on streptavidin-HRP) for the positive control
B1: binds [1].

B2: VASN (receptor, human, UniProt Q6EMK4 24-575, looked up)
chain: CPSGCQCSQPQTVFCTARQGTTVPRDVPPDTVGLYVFENGITMLDAGSFAGLPGLQLLDLSQNQIASLPSGVFQPLANLSNLDLTANRLHEITNETFRGLRRLERLYLGKNRIRHIQPGAFDTLDRLLELKLQDNELRALPPLRLPRLLLLDLSHNSLLALEPGILDTANVEALRLAGLGLQQLDEGLFSRLRNLHDLDVSDNQLERVPPVIRGLRGLTRLRLAGNTRIAQLRPEDLAGLAALQELDVSNLSLQALPGDLSGLFPRLRLLAAARNPFNCVCPLSWFGPWVRESHVTLASPEETRCHFPPKNAGRLLLELDYADFGCPATTTTATVPTTRPVVREPTALSSSLAPTWLSPTEPATEAPSPPSTAPPTVGPVPQPQDCPPSTCLNGGTCHLGTRHHLACLCPEGFTGLYCESQMGQGTRPSPTPVTPRPPRSLTLGIEPVSPTSLRVGLQRYLQGSSVQLRSLRLTYRNLSGPDKRLVTLRLPASLAEYTVTQLRPNATYSVCVMPLGPGRVPEGEEACGEAHTPPAVHSNHAPVTQAREGNLP
modifications: biotin on the biotin-acceptor site (enzymatic, co-transfected BirA)
notes: VASN (vasorin), human, full ectodomain; also called vasorin
B2: binds (JAG1).

B3: KIR2DL5A (receptor, human, UniProt Q8N109 22-238, looked up)
chain: HEGGQDKPLLSAWPSAVVPRGGHVTLLCRSRLGFTIFSLYKEDGVPVPELYNKIFWKSILMGPVTPAHAGTYRCRGSHPRSPIEWSAPSNPLVIVVTGLFGKPSLSAQPGPTVRTGENVTLSCSSRSSFDMYHLSREGRAHEPRLPAVPSVNGTFQADFPLGPATHGGTYTCFGSLHDSPYEWSDPSDPLLVSVTGNSSSSSSSPTEPSSKTGIRRH
modifications: biotin on the biotin-acceptor site (enzymatic, co-transfected BirA)
notes: KIR2DL5A, human, full ectodomain
B3: binds (PVR).
